{"source": "patent US20060165706A1", "about": "(GENETICS INSTITUTE, published 2006)", "binders": {"B1": {"name": "humanized anti-CTLA4 antibody 26, IgG1 isotype (antibody, V domains shown)", "VH": "QVQLQESGPGLVKPSQTLSLTCTVSGFSLTSYGVYWVRQPPGKGLEWLGVIWAGGTTNYNSALMSRLTISKDTSKNQVSLKLSSVTAADTAVYYCARGPPHAMMKRGYAMDYWGQGTLVTVSS", "VL": "DIQMTQSPSSLSASVGDRVTITCSATSSITYMSWYQQKPGKAPKLLIYDTSNLASGVPSRFSGSGSGTDYTLTISSLQPEDFATYYCQQWSSYPLTFGGGTKVEIK", "notes": "Human IgG1 heavy constant region (pVgamma1 vector) and human kappa constant region (pVkappa vector); also called hCTLA4-26B IgG1; humanized anti-CTLA4 IgG1"}, "B2": {"name": "humanized anti-CTLA4 antibody 26, IgG2m3 isotype (antibody, V domains shown)", "VH": "B1 VH", "VL": "B1 VL", "notes": "Human IgG2m3 (mutated IgG2) heavy constant region (pVgamma2m3 vector) and human kappa constant region; also called hCTLA4-26B IgG2m3; IgG2 m3 (2 mutated 3)"}, "B3": {"name": "humanized anti-CTLA4 antibody 26, IgG4 isotype (antibody, V domains shown)", "VH": "B1 VH", "VL": "B1 VL", "notes": "Human IgG4 heavy constant region (pVgamma4 vector) and human kappa constant region; also called hCTLA4-26B IgG4; PVkLC+PVg4HC"}, "B4": {"name": "murine anti-human CTLA4 monoclonal antibody number 26 (antibody, V domains shown)", "VH": "QVQLKESGPGLVAPSQSLSITCTVSGFSLTSYGVYWVRQPPGKGLEWLGVIWAGGTTNYNSALMSRLSISKDNSKSQVFLKMSSLQTDDTAMYYCARGPPHAMMKRGYAMDYWGQGTSVIVSS", "VL": "QNVLTQSPAIMPASPGEKVTMTCSATSSITYMSWYQQKSGSSPRLLIYDTSNLASGVPVRFSGSGSGTSYSLTISRMEAEDAATYYCQQWSSYPLTFGAGTKLELK", "notes": "Mouse IgG1; also called antibody 26; antibody 26B"}}, "key": {"[1]": {"biological_target": "CTLA4 on CTLA4-expressing CHO cells (human, UniProt P16410 36-223)", "sequence (P16410 36-223 T147A limits assumed)": "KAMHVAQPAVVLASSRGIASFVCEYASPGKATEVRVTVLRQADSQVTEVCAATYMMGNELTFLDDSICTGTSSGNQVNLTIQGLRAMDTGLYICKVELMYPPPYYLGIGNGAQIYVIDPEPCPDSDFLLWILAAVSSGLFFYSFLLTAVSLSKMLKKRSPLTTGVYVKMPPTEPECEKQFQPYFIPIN", "test": "FACS competition on CTLA4-expressing CHO cells; competitor 125 ng FITC-labeled murine anti-CTLA4; unlabeled antibody 2000 ng to 100 ng", "description": "The starting concentration of the unlabeled competitor was 2000 ng and was diluted 2-fold serially to 100 ng."}, "[2]": {"biological_target": "T1, human CTLA4-Ig (human, UniProt P16410 38-161)", "T1 construct": "also called rhCTLA4IgG1Fc; not shown: immunoglobulin Fc part of the fusion; named IgG1Fc in rhCTLA4IgG1Fc and detected with anti-human Fc", "T1 sequence (P16410 other isoform, or with tags, fused parts or gaps limits assumed)": "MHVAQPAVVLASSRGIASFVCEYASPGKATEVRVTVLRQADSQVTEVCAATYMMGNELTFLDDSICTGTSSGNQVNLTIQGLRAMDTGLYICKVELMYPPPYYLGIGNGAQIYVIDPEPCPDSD", "test": "calculated; method and form of CTLA4 not stated (Example 8, competition assays); humanized, IgG1 isotype"}, "[3]": {"biological_target": "T1, human CTLA4-Ig", "test": "competition ELISA on plate-coated human CTLA4-Ig (10 ug/ml); cold competitor titrated against biotinylated murine CTLA4-26B; streptavidin-peroxidase, ABTS, O.D. 415 nm", "description": "(§1) Plates were coated with human CTLA4-Ig (10 ug/ml) overnight, washed the next day and blocked with Superblock (Pierce) for 15 min at room temperature. Plates were washed three times with 1×PBS/0.1% Tween 20 and three times with 1×PBS.\n(§2) 100 ul of antibody mixtures was transferred to human CTLA4-Ig coated ELISA plate and rocked for 2 hours at room temperature. Plates were washed as described above and a secondary reagent (streptavidin peroxidase conjugate at 1:1000 dilution) in PBT buffer (1×PBS, 1% BSA, 0.1% Tween 20 was added. Plates were incubated for 1 hr at RT with shaking. Plates were washed as described above and developed for 10 minutes at room temperature with ABTS+H2O2 (100 ul/well) and the reaction was stopped with 2% oxalic acid (100 ul/well)."}, "[4]": {"biological_target": "T1, human CTLA4-Ig", "test": "competition ELISA on coated human CTLA4-Ig; reference murine CTLA4-26B", "description": "as §1, §2"}, "[5]": {"biological_target": "T1, human CTLA4-Ig", "test": "calculated; method and form of CTLA4 not stated (Example 8, competition assays); humanized, IgG2m3 isotype"}, "[6]": {"biological_target": "T1, human CTLA4-Ig", "test": "calculated; method and form of CTLA4 not stated (Example 8, competition assays); humanized, IgG4 isotype"}, "[7]": {"biological_target": "T2, E46", "T2 construct": "one of 11 alanine mutants made by site-directed mutagenesis, used as CHO supernatant; also called CTLA4 point mutant E46; CTLA4-Ig E46A; not shown: human Ig Fc portion (with hinge or linker) of the CTLA4-Ig fusion", "test": "sandwich ELISA: antibody coated at 10 ug/ml, CHO supernatant with CTLA4-Ig mutant, AP-goat anti-human Fc"}, "[8]": {"biological_target": "T1, human CTLA4-Ig", "test": "calculated; method and form of CTLA4 not stated (Example 8, competition assays); murine antibody"}, "[9]": {"biological_target": "T1, human CTLA4-Ig", "test": "inhibition ELISA on plate-coated human CTLA4-Ig (10 ug/ml); antibody titrated, then biotin-CD86-Ig at 0.66 ug/ml as the blocked ligand; neutravidin-AP, ABTS", "description": "ELISA were performed as described above with modifications. […] After washing, saturating concentrations of neutravidin-AP were added, and incubated for 1 hr at RT. Unbound neutravidin-AP was washed using PBS/1% BSA. The assay was developed using ABTS."}, "[10]": {"biological_target": "T3, D62", "T3 construct": "one of 11 alanine mutants made by site-directed mutagenesis, used as CHO supernatant; also called CTLA4 point mutant D62; CTLA4-Ig D62A; not shown: human Ig Fc portion (with hinge or linker) of the CTLA4-Ig fusion", "test": "sandwich ELISA: antibody coated at 10 ug/ml, CHO supernatant with about 0.5 ug/ml CTLA4-Ig mutant, AP-goat anti-human Fc; blanks on the sheet: Mock 0.174, DME 0.183"}, "[11]": {"biological_target": "T2, E46", "test": "sandwich ELISA: antibody coated at 10 ug/ml, CHO supernatant with about 0.5 ug/ml CTLA4-Ig mutant, AP-goat anti-human Fc; blanks on the sheet: Mock 0.174, DME 0.183", "description": "Mutant proteins were transiently expressed on CHO cells and supernatants harvested at 48 hrs. Supernatants containing CTLA4 mutant molecules were quantitated and standardized by ELISA. […] After incubation for 2 hrs at RT, plates were washed and incubated for 1 hr with AP-conjugated goat anti-human Fc specific IgG. The assay was developed as described above."}, "[12]": {"biological_target": "T4, R85", "T4 construct": "one of 11 alanine mutants made by site-directed mutagenesis, used as CHO supernatant; also called CTLA4 point mutant R85; CTLA4-Ig R85A; not shown: human Ig Fc portion (with hinge or linker) of the CTLA4-Ig fusion", "test": "sandwich ELISA: antibody coated at 10 ug/ml, CHO supernatant with about 0.5 ug/ml CTLA4-Ig mutant, AP-goat anti-human Fc; blanks on the sheet: Mock 0.174, DME 0.183"}, "[13]": {"biological_target": "T5, D63", "T5 construct": "one of 11 alanine mutants made by site-directed mutagenesis, used as CHO supernatant; also called CTLA4 point mutant D63; CTLA4-Ig D63A; not shown: human Ig Fc portion (with hinge or linker) of the CTLA4-Ig fusion", "test": "sandwich ELISA: antibody coated at 10 ug/ml, CHO supernatant with about 0.5 ug/ml CTLA4-Ig mutant, AP-goat anti-human Fc; blanks on the sheet: Mock 0.174, DME 0.183"}, "[14]": {"biological_target": "T6, T67", "T6 construct": "one of 11 alanine mutants made by site-directed mutagenesis, used as CHO supernatant; also called CTLA4 point mutant T67; CTLA4-Ig T67A; not shown: human Ig Fc portion (with hinge or linker) of the CTLA4-Ig fusion", "test": "sandwich ELISA: antibody coated at 10 ug/ml, CHO supernatant with about 0.5 ug/ml CTLA4-Ig mutant, AP-goat anti-human Fc; blanks on the sheet: Mock 0.174, DME 0.183"}, "[15]": {"biological_target": "T7, R38", "T7 construct": "one of 11 alanine mutants made by site-directed mutagenesis, used as CHO supernatant; also called CTLA4 point mutant R38; CTLA4-Ig R38A; not shown: human Ig Fc portion (with hinge or linker) of the CTLA4-Ig fusion", "test": "sandwich ELISA: antibody coated at 10 ug/ml, CHO supernatant with about 0.5 ug/ml CTLA4-Ig mutant, AP-goat anti-human Fc; blanks on the sheet: Mock 0.174, DME 0.183"}, "[16]": {"biological_target": "T8, L61", "T8 construct": "one of 11 alanine mutants made by site-directed mutagenesis, used as CHO supernatant; also called CTLA4 point mutant L61; CTLA4-Ig L61A; not shown: the human Ig (Fc) part of the CTLA4-Ig fusion and its junction", "test": "sandwich ELISA: antibody coated at 10 ug/ml, CHO supernatant with about 0.5 ug/ml CTLA4-Ig mutant, AP-goat anti-human Fc; blanks on the sheet: Mock 0.174, DME 0.183"}, "[17]": {"biological_target": "T9, S64", "T9 construct": "one of 11 alanine mutants made by site-directed mutagenesis, used as CHO supernatant; also called CTLA4 point mutant S64; CTLA4-Ig S64A; not shown: human Ig Fc portion (with hinge or linker) of the CTLA4-Ig fusion", "test": "sandwich ELISA: antibody coated at 10 ug/ml, CHO supernatant with about 0.5 ug/ml CTLA4-Ig mutant, AP-goat anti-human Fc; blanks on the sheet: Mock 0.174, DME 0.183"}, "[18]": {"biological_target": "T10, Q82", "T10 construct": "one of 11 alanine mutants made by site-directed mutagenesis, used as CHO supernatant; also called CTLA4 point mutant Q82; CTLA4-Ig Q82A; not shown: human Ig Fc portion (with hinge or linker) of the CTLA4-Ig fusion", "test": "sandwich ELISA: antibody coated at 10 ug/ml, CHO supernatant with about 0.5 ug/ml CTLA4-Ig mutant, AP-goat anti-human Fc; blanks on the sheet: Mock 0.174, DME 0.183"}, "[19]": {"biological_target": "T11, T45", "T11 construct": "one of 11 alanine mutants made by site-directed mutagenesis, used as CHO supernatant; also called CTLA4 point mutant T45; CTLA4-Ig T45A; not shown: the human Ig (Fc) part of the CTLA4-Ig fusion and its junction", "test": "sandwich ELISA: antibody coated at 10 ug/ml, CHO supernatant with about 0.5 ug/ml CTLA4-Ig mutant, AP-goat anti-human Fc; blanks on the sheet: Mock 0.174, DME 0.183"}, "[20]": {"biological_target": "T12, I65", "T12 construct": "one of 11 alanine mutants made by site-directed mutagenesis, used as CHO supernatant; also called CTLA4 point mutant I65; CTLA4-Ig I65A; not shown: the human Ig (Fc) part of the CTLA4-Ig fusion and its junction", "test": "sandwich ELISA: antibody coated at 10 ug/ml, CHO supernatant with about 0.5 ug/ml CTLA4-Ig mutant, AP-goat anti-human Fc; blanks on the sheet: Mock 0.174, DME 0.183"}, "[21]": {"biological_target": "T1, human CTLA4-Ig", "test": "ELISA on plate-coated human CTLA4-Ig (10 ug/ml); serial dilutions of antibody, AP-goat anti-mouse, ABTS, OD 405 nm", "description": "ELISA plates were incubated with 10 ug/ml human CTLA4-Ig overnight. Plates were washed with PBS/1% BSA and incubated with serial dilutions of primary antibody for 2 hrs at room temperature (RT). After washing, saturating concentrations of AP-conjugated goat anti-mouse antibody were added, and incubated for 1 hr at RT. Unbound goat antibodies were washed using PBS/1% BSA. The assay was developed using ABTS."}}, "data": [{"binder": "B1", "values": [{"measurement": "fold difference in binding affinity against the murine antibody", "setting": "[1]", "result": "≤ 3", "unit": "fold"}, {"measurement": "Kd", "setting": "[2]", "result": "~2", "unit": "nM"}, {"measurement": "IC50 (read off the curve)", "setting": "[3]", "result": "~3", "unit": "µg/mL"}, {"measurement": "fold difference in affinity against the murine antibody", "setting": "[4]", "result": "≤ 10", "unit": "fold"}]}, {"binder": "B2", "values": [{"measurement": "IC50 (read off the curve)", "setting": "[3]", "result": "~3", "unit": "µg/mL"}, {"measurement": "Kd", "setting": "[5]", "result": "~1.2", "unit": "nM"}, {"measurement": "fold difference in affinity against the murine antibody", "setting": "[4]", "result": "≤ 10", "unit": "fold"}]}, {"binder": "B3", "values": [{"measurement": "IC50 (read off the curve)", "setting": "[3]", "result": "~3", "unit": "µg/mL"}, {"measurement": "fold difference in affinity against the murine antibody", "setting": "[4]", "result": "≤ 10", "unit": "fold"}, {"measurement": "Kd", "setting": "[6]", "result": "~1.1", "unit": "nM"}]}, {"binder": "B4", "values": [{"measurement": "binding result", "setting": "[7]", "result": "no binding"}, {"measurement": "IC50 (read off the curve)", "setting": "[3]", "result": "~3", "unit": "µg/mL"}, {"measurement": "Kd", "setting": "[8]", "result": "~1.7", "unit": "nM"}, {"measurement": "IC50 (read off the curve)", "setting": "[9]", "result": "~0.6", "unit": "µg/mL"}, {"measurement": "O.D. 450 nm", "setting": "[10]", "result": 0.974}, {"measurement": "O.D. 450 nm", "setting": "[11]", "result": 0.16}, {"measurement": "O.D. 450 nm", "setting": "[12]", "result": 0.976}, {"measurement": "O.D. 450 nm", "setting": "[13]", "result": 0.979}, {"measurement": "O.D. 450 nm", "setting": "[14]", "result": 0.944}, {"measurement": "O.D. 450 nm", "setting": "[15]", "result": 0.636}, {"measurement": "O.D. 450 nm", "setting": "[16]", "result": 1.19}, {"measurement": "O.D. 450 nm", "setting": "[17]", "result": 1.1}, {"measurement": "O.D. 450 nm", "setting": "[18]", "result": 1.07}, {"measurement": "O.D. 450 nm", "setting": "[19]", "result": 0.948}, {"measurement": "O.D. 450 nm", "setting": "[20]", "result": 1.17}, {"measurement": "EC50 (read off the curve)", "setting": "[21]", "result": "~0.05", "unit": "µg/mL"}]}]}
